Data from patent publication US20110039770A1 (PHARMAGAP, published 2011).

Assays:
PKC-ε, purified isoform [1] = target: T1, PKC-ε, purified isoform (UniProt Q02156 1-737); test: competition ELISA on coated purified PKC-ε vs anti-PKC ε antibody; PRE 50 µM
T1 construct: also called PKC-epsilon; epsilon
T1 sequence (looked up): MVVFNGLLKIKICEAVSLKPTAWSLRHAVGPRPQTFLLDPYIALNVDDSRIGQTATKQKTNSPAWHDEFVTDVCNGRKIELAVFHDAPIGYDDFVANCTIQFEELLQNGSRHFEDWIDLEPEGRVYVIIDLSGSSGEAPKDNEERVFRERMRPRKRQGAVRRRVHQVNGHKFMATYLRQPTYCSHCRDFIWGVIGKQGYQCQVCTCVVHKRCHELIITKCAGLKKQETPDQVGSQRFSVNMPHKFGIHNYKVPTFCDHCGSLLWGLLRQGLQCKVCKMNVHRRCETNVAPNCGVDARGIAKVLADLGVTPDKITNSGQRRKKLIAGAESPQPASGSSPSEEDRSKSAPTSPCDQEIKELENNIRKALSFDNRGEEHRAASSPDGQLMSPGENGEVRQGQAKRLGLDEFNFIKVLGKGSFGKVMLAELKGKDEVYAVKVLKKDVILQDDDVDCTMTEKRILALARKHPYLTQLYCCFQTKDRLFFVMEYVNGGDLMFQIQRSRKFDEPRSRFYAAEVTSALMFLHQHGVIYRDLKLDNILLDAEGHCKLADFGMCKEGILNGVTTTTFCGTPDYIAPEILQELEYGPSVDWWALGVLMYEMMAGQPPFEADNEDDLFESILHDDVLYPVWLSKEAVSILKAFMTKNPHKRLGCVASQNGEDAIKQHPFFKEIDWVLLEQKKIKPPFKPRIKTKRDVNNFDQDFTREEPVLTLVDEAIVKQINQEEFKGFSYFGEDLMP

[2] = target: T2, PKC-βI in extracts of human cell lines (human, UniProt P05771-1 2-671); test: Western-blot competition, cell extracts: PRE at 10X/20X the anti-PKC beta I primary antibody concentration competes with that antibody; band densitometry (lower band = PRE bound)
T2 construct: Denatured on the Western blot membrane; beta I splice form; also called PKC-beta I (cell extract)
T2 sequence (P05771 2-671 limits assumed): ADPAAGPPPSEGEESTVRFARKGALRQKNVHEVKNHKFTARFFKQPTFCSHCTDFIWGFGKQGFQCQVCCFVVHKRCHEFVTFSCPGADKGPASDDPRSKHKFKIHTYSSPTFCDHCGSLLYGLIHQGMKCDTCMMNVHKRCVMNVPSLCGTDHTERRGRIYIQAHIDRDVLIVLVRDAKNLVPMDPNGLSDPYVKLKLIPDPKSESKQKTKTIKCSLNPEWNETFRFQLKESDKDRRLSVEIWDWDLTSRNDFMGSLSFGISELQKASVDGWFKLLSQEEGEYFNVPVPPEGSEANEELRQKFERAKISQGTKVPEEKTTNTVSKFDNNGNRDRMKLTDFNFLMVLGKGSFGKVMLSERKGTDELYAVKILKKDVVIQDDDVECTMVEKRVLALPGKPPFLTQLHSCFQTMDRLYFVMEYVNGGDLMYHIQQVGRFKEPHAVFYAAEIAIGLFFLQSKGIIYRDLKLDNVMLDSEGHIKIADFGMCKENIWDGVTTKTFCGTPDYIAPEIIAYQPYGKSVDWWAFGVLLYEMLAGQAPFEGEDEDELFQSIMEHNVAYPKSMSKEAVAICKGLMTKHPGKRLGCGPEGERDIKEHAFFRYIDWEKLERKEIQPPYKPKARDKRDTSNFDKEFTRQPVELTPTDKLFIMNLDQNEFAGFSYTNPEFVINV

PKC-α, purified isoform = target: T3, PKC-α, purified isoform (UniProt P17252 1-672); test: purified isoform competition ELISA, summary grade
T3 construct: also called PKC-alpha; protein kinase C alpha

PKC-βI, purified isoform = target: T4, PKC-βI, purified isoform (UniProt P05771-1 1-671); test: purified isoform competition ELISA, summary grade
T4 construct: also called PKC-beta I; beta 1
T4 sequence (P05771 whole entry, canonical isoform): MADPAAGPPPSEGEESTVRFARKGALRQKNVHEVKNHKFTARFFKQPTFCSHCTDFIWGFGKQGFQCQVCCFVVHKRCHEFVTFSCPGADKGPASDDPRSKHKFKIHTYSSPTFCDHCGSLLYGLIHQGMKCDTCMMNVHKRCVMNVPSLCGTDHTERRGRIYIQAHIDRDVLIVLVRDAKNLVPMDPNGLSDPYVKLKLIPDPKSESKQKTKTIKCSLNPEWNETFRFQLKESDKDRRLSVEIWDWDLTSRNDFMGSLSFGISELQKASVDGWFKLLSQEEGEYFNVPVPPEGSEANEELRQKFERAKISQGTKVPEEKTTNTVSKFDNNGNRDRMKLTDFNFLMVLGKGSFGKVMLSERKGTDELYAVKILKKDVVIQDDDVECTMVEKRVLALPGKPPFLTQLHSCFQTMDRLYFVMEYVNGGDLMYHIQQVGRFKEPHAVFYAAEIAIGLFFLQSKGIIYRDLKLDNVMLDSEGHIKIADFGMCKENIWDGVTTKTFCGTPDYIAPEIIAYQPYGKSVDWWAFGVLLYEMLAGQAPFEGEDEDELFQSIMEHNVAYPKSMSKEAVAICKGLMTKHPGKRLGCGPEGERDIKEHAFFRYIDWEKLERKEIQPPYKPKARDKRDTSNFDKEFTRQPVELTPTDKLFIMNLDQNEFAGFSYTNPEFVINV

PKC-ε, purified isoform [3] = target: T1, PKC-ε, purified isoform; test: purified isoform competition ELISA, summary grade
[4] = target: T5, PKC-ε in extracts of human cell lines (human, UniProt Q02156 1-737); test: Western-blot competition, cell extracts: PRE at 10X/20X the anti-PKC epsilon primary antibody concentration competes with that antibody; band densitometry (lower band = PRE bound)
T5 construct: Denatured on the Western blot membrane; also called PKC-epsilon (cell extract)
T5 sequence (looked up): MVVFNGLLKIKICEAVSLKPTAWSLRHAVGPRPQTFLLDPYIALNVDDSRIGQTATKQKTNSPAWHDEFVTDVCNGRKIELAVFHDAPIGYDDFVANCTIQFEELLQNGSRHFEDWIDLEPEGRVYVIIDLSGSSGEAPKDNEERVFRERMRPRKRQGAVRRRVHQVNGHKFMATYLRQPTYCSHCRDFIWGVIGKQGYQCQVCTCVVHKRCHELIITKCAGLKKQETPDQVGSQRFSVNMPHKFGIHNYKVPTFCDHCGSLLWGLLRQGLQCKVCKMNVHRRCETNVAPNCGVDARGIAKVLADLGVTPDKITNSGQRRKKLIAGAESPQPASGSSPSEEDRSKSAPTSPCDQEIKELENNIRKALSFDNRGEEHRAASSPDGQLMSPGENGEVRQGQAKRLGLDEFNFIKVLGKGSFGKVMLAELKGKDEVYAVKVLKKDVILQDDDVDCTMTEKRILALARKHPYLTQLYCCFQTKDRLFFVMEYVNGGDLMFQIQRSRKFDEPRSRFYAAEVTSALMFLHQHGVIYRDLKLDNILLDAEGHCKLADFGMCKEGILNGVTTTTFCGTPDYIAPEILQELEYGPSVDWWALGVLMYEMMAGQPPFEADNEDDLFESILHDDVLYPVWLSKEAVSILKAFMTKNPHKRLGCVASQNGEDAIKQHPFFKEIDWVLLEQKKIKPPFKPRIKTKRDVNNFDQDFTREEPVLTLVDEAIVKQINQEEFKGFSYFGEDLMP

[5] = target: T6, PKC-ι in extracts of human cell lines (human, UniProt P41743 2-596); test: Western-blot competition, cell extracts: PRE at 10X/20X the anti-PKC iota primary antibody concentration competes with that antibody; band densitometry (lower band = PRE bound)
T6 construct: Denatured on the Western blot membrane; also called PKC-iota (cell extract)
T6 sequence (looked up): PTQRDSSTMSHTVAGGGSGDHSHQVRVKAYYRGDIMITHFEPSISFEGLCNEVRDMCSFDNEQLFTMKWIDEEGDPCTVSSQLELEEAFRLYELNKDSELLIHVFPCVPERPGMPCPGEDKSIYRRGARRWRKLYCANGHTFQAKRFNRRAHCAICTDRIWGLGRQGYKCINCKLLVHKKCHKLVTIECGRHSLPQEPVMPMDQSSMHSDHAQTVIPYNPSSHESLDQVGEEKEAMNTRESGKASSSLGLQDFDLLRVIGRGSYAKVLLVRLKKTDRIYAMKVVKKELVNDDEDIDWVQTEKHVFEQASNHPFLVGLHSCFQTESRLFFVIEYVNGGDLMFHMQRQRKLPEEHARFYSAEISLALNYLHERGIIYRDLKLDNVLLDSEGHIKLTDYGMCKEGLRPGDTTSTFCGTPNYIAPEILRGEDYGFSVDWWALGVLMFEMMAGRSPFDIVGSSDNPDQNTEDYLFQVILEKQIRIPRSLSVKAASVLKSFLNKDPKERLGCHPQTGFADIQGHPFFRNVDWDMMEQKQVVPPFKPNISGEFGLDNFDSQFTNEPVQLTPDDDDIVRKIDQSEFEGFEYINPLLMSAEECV

[6] = target: T7, PKC-ζ in extracts of human cell lines (human, UniProt Q05513 1-592); test: Western-blot competition, cell extracts: PRE at 10X/20X the anti-PKC zeta primary antibody concentration competes with that antibody; band densitometry (lower band = PRE bound)
T7 construct: Denatured on the Western blot membrane; also called PKC-zeta (cell extract)
T7 sequence (looked up): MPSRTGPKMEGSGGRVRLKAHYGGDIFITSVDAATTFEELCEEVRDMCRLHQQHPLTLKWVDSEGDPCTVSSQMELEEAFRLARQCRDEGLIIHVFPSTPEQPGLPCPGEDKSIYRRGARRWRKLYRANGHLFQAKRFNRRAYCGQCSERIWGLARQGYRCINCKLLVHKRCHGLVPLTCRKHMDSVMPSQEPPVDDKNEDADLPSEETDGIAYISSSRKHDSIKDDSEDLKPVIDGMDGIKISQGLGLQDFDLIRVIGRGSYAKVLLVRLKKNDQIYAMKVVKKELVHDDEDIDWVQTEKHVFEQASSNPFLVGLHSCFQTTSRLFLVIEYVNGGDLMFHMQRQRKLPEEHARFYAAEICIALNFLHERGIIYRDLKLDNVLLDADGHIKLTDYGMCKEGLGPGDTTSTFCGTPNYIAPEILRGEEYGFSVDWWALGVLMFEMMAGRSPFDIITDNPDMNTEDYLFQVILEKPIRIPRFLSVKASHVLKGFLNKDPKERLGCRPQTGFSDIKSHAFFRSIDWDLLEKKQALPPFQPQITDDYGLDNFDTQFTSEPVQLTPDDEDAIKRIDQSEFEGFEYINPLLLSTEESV

PKC-ε, purified isoform [7] = target: T1, PKC-ε, purified isoform; test: competition ELISA on coated purified PKC-ε vs anti-PKC ε antibody; PRE 100 µM
PKC-ε, purified isoform [8] = target: T1, PKC-ε, purified isoform; test: competition ELISA on coated purified PKC-ε vs anti-PKC ε antibody; PRE 200 µM

B1: PRE 12 (peptide)
peptide: Ac-KDAQNLI-NH2
notes: Ac-KDAQNLI-NH2; also called peptide recognition element 12
relative binding capacity (PKC-ε, purified isoform [1]): 10.4%
binding result [2]: no binding (tested: 20X the primary antibody concentration)
binding result (PKC-α, purified isoform): no binding
binding result (PKC-βI, purified isoform): no binding
binding result (PKC-ε, purified isoform [3]): no binding
binding result [4]: no binding (tested: 20X the primary antibody concentration)
binding result [5]: no binding (tested: 20X the primary antibody concentration)
binding result [6]: binds
relative binding capacity (PKC-ε, purified isoform [7]): 0.28%
relative binding capacity (PKC-ε, purified isoform [8]): 0%
